Test results from patent publication US20140205611A1 (EVEC, published 2014).

What was measured:
[1] = biological target: T1, recombinant hGM-CSF derived from yeast (Leukine, Berlex) (human, UniProt P04141 18-144); test: SPR (Biacore), antibody captured via immobilised protein G, rhGM-CSF injected
T1 construct: Bought product; also called yeast hGM-CSF (Leukine); yeast GM-CSF (Leukine)
Method: To calculate affinity constants for recombinant hGM-CSF binding to anti-hGM-CSF monoclonal antibodies, surface plasmon resonance (SPR) was performed on a Biacore System™ (FIG. 2).
In the method to analyze the interaction between antibodies and antigens, the purified antibodies were captured on a sensor chip via interaction with protein G immobilized to sensor chip surface, and then recombinant antigens were injected to the sensor chip. Purified antibodies were used and recombinant hGM-CSF was used as an antigen.

[2] = biological target: recombinant hGM-CSF expressed in E. coli (Fa. Biomol #2514) (human, UniProt P04141 18-144); test: cell-based or functional assay
recombinant hGM-CSF expressed in E. coli (Fa. Biomol #2514), sequence (P04141 18-144 limits assumed): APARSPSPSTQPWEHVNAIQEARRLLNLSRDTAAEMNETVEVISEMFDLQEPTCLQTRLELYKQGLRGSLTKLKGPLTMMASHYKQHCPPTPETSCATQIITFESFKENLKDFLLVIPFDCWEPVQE

T1 sequence (P04141 other isoform, or with tags, fused parts or gaps limits assumed): as the sequence (P04141 18-144 limits assumed) above, with R23L counted along it

Row | Binder | Kd [1] | IC50 in TF-1 assay, hGM-CSF (E. coli) at 1.0 ng/ml final concentration [2] | Ratio: Reference antibody to antibody of interest (IC50 of BVD2-21C11 over IC50 of EV1018, TF-1 assay) [2]
1 | EV1019 (antibody, human IgG1, lambda, V domains shown, also called EV1019 Batch 1; EV1019 Batch 2) VH: QAQLVESGGGVVKPGGSLRLSCISSKFTFSSHAMHWVRQAPGKGLEWVAVIWHDGSKKYYADSVKGRFSVSRDNSKNTLFLQMDSLRAEDTAVYFCGKEWVGGTCDSWGQGTLVIVSS VL: QPALTQEASVSGTVGQTVTLLCSGNSSNIGSYAVGWYQQISRGAPKIVVFGKSPASGIPDRFSGSKSGTTASLLVSGLQPEDEADYYCSTWDSRLSAVLFGGGTKLTVLR | 0.36 nM | – | –
2 | EV1018 (antibody, human IgG1, lambda, also called wild-type EV1018; WT EV1018) heavy: not shown light: QSALTQETSVSGTVGQKVTLSCIGNNNNIGSHAVGWYQQISRGAPKMVLFGRSPPSGVPDRFSGSKSGTTASLIISGLQPEDEADYYCSTWDSSLSAVVFGGGTKLTVLRQPKAAPSVTLFPPSSEELQANKATLVCLISDFYPGAVTVAWKADSSPVKAGVETTTPSKQSNNKYAASSYLSLTPEQWKSHRSYSCQVTHEGSTVEKTVAPTECS | 0.23 nM | 0.02 nM | 413
